These results are taken from paper PMC7458484.

This data set addresses HBV core protein Cp185 (full-length) (hepatitis B virus (Human); compared to …, UniProt Q67855 1-185). As to the kind of experiment: time-resolved SAXS (stopped flow), SEC capsid assembly; after mixing ~1 RNA per 6.5 Cp185 monomers; RNA in assembly buffer; RNA added to dimers in disassembly buffer immediately triggered capsid formation; Cp185 in 1.5 M GuHCl, 0.5 M LiCl, 50 mM HEPES pH 7.5, 2 mM DTT mixed 1:1 with assembly buffer 250 mM NaCl, 50 mM HEPES pH 7.5, 2 mM DTT; RNA 0.075 mg/mL final.

For the molecule GGGUUUGUUUAAAGACUGGGAGGAGUUGGGGGAGGAGCCC (structured_RNA) [PS1 RNA oligo (40 nt, RNA40)], the binding result is reported as “binds”.
